According to publication PMC4932452:

Target: heat shock protein 70 (UniProt P0DMV8)
Experiment: co-immunoprecipitation (anti-Flag beads) and western blot, band densitometry
Settings: beads incubated with celastrol for 10 min, room temperature; n = 3; parent: est. 0.73; read off a plot

Sequence of UniProt P0DMV8 (P0DMV8 whole entry): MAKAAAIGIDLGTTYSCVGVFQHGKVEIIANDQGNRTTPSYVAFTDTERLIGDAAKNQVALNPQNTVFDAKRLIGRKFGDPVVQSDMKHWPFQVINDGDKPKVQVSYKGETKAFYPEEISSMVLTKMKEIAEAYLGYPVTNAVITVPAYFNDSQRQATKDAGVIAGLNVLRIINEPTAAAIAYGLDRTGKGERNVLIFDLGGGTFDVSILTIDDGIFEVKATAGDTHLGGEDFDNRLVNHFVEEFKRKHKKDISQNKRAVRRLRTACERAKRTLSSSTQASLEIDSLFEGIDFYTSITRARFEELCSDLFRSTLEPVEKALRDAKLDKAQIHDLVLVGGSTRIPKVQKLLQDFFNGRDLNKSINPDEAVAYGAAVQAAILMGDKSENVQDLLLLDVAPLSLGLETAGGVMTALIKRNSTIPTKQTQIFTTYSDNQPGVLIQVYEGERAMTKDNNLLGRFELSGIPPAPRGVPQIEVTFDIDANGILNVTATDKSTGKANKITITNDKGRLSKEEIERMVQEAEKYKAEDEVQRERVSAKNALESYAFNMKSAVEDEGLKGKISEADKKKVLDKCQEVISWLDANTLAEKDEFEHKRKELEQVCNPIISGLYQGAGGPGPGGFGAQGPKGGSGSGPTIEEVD

wild-type human HSP90α (Flag-tagged, from pCMV-tag2a) (from UniProt P07900-1) Y493G; K546D
other: band density of cell-free experiment (ratios to HSP90α), DMSO group set as 1.0: 1.3
